From the supplement of paper PMC12636428 come the findings set out here.

For the data set, the system named is Saccharomyces cerevisiae. Put plainly: transcriptional activation domain activity (GFP:mCherry ratio, weighted mean of sorted bins, harmonized to initial dataset scale) (arbitrary fluorescence ratio units); higher = stronger transcriptional activation. To be noted: beta-estradiol 1 µM; induction time 4 h. In short, it runs like this: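 The listed activation activity is a read-weighted mean of bin median fluorescence, averaged across barcodes and linearly mapped onto the initial dataset scale. Barcoded tiles, fused to an estradiol-inducible synthetic transcription factor, were integrated at URA3 in yeast diploids bearing a GFP reporter. Cells were held 4 hours at 30 °C in SC with 1 uM beta-estradiol, sorted into 8 GFP:mCherry bins, and sequenced, and tiles with fewer than 50 reads were excluded.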

As to “GEKRKRGGEGKGEDDDDDDDDDRGQEGDGKRGSEDTGGGSKKGRRRRKRGKGH”, the “transcriptional activation domain activity” value was found to be 22600.

For the sequence “DANASSSSTSSTQANNYIDFHWNNIKPELRDLICQSYKDFLINELGPDQIDLP”, the “transcriptional activation domain activity” value amounted to 51100. As to “NGNMIVNFFYKNIICIGCLWWFQIYCGWSSQYVFEYTYLLFWNVFWSLCPVIA”, the “transcriptional activation domain activity” value is 38800. Take “RREERRGEDGHRHRRTRRYSEDEDEEGERRSRGKERGGEERREKRREERRDAG”: the “transcriptional activation domain activity” value was found to be 16800.

On to “MKELSFFPISISIQRYSHIRWVLLHCTNYLISFVYHCYVIILSVFFFLYIFTA”, for which the “transcriptional activation domain activity” value was 76900. For “GSSAEGEGDKEKTAVKRKRDSQVTGQQQQQQQQRADSSNRATSRKRRKTNKEG” the value was 60100; for “MGRVVGVGSFYVWICHFFYIFSFFFSPMMNWTGSGLVGCVMALLYFILSFSFS”, 46200. As for “RGKVVSRLRKVLQKTSFKPTRSLTDHWTWNEIAILIRFVLMLSFNNRGPVKSY”, the “transcriptional activation domain activity” value was determined as 43200.

On to “GEIAQLWDFNVDQFNMTPSNSSGSATISAPNSFTSDIPQYNHGSLGNSVSKSS”, for which the “transcriptional activation domain activity” value was 48300. Regarding “MSIAWLCYSSALCQGLRNTIFPSLNIFLMDPLSEWTARQWLFYLVWLLTIVWK”, the “transcriptional activation domain activity” value was 52800. Turning to “GVDDADHEEEEEEEEEEEQEGARYGALMGGLGVAQGAMRILAPAVAGGVYAVS”, the “transcriptional activation domain activity” value was determined as 67300. As to “SIDSAAHHDNSTIPLDFMPRDALHGFDWSEEDDMSDGLPFLKTDPNNNGFFGD”, the “transcriptional activation domain activity” value turned out to be 69800. Consider “MGCKLIILFSSAMLFLFFSVLFLLLPLFFLSPTTCFLSFWLRLWLLLMVHWGR”, for which the “transcriptional activation domain activity” value came to 47600. Take “EPSRAGTPAPAPAAGEKKVGEAEGKVAEKAEGEGEGGKGAGEENNGKGKESVK”: the “transcriptional activation domain activity” value came out at 19100.

Consider “INGLFMLLLVYYLTLYHLARCLGYSVLSYLAHFIRFDGFCPLLHTCAGLLFSS”, for which the “transcriptional activation domain activity” value stood at 42300. For the sequence “PTRRSFSSAWFLCIRYFSLCSNIVVIVDTFGTFSYNVPMYGLSKKLLMWLACV”, the “transcriptional activation domain activity” value came to 47900. For “RAITPMRVWMEVHDRAAFKLVWSEVFRLVSVLTDCPLRFKRLHYGGTMLGINT” the value was 45000; for “MAPAPAPVAAPPAPETREAPPASPRGRSRSRSRSPAFRRPSPPAPRRPVGAPA”, 29100; for “TGEKFGIKRKEQQKPEQTAEETVALAKNDTPSFASVFILAYGIHKTLLLPVRL”, 41500.

On to “MSEPPRKRAKLACVTCNARRVKCDVTDRHPCTNCAAGNVECETRESRRGKHVR”, for which the “transcriptional activation domain activity” value worked out at 14300.

For the sequence “PKDSEPEGADKLKPMQEVYGAVRNTGIGTEVDNRDNMIRGRWRKLLHARLAHL”, the “transcriptional activation domain activity” value came out at 43500. For “LLTWMPTVAWPMYNRCFGSLIWIPIRYELIAIVILSIITFFFLFLAALISIQL” the value was 43300; for “KSVSRLHAKIEYDQEEDRFVLLVVGRNGAWVDGVWSASGTRACLGERSQIQIA”, 42000; for “RKADPPKEKKKPAVPAAEGAAAPAKKEKKDKKDKEAAAVSVEATEVKEEAAPA”, 13900. “MVCRDILHFWWMFISLNANAEDIIISRSSSWLSSPLLVCFLVVCNVVCVYFYI”: the “transcriptional activation domain activity” value came to 72800.

For “EEVKPVMAAETKPEEKKASEEAKPEEKSAETSTDKSSGVNRNAVAAAASAATS”, the “transcriptional activation domain activity” value is 32400. “MLICLFVVFSPFFLFIFLYLSAYRLSFFNFSCFLLFLYLFLIHLLYFPLYFIF”: the “transcriptional activation domain activity” value was 61200. Take “VLSRVTGLEHKQMCKIILGLIIDLLLPSGGDTSRILRTVRALLDFLYLAQLPS”: the “transcriptional activation domain activity” value came to 73900. With “PSFLWWLPLVLFVMATGIFVILSFLLFLIIHGLYYIVPLWQKCGSIHVCVSVL”, the “transcriptional activation domain activity” value is 52700. In the case of “PDEDEVVENAEKPKRRRRAKPTEEEQNEEQQNEEDAVENAGKKKRGKRTKPTE”, the “transcriptional activation domain activity” value came out at 39900.

Consider “SKKKGRKAQKTGSADPAPNESKDRAGATEEAAEGAADEEDEQDEDEDEDEEGE”, for which the “transcriptional activation domain activity” value turned out to be 37600. “WRVLSVFAVFNLGPYVFSLILYSSNAFLYTQWLSFTAVCLISLANVILFRFLL”: the “transcriptional activation domain activity” value stood at 43700. As to “QANGVEKAVENLSISSPHPDTHAQSAPEQNGPKKKPNRAKARLARRAAEYEAL”, the “transcriptional activation domain activity” value came to 14100.

Turning to “NLLLFPGISFKTQLLYAIVFCTRYLDLFIRFVSIYNTLMKIFFIGSSFYILYL”, the “transcriptional activation domain activity” value amounted to 67300. Consider “DLFVSLMANSLTKLGFVPGATVDMKKLTIDIVELIFRWERRRMTGSPSIKPAD”, for which the “transcriptional activation domain activity” value is 45200.

Consider “LLYLCRDILMAVFAWSLAIQIDPFFTNVVIRSILSPTIAKTFRWMSWCVYWWF”, for which the “transcriptional activation domain activity” value is 57700. As for “GDDEETQGNATKNILDDWEGAPESFVCQEQRQTGGRVAAKTQRLLSFSIHDEL”, the “transcriptional activation domain activity” value was 23100. Turning to “MILNGELERCRESLHIVSEYVHSILRLNVLCLRLLYRRMDPSREPVDLFEVAV”, the “transcriptional activation domain activity” value turned out to be 54500. In the case of “AIAEYKWVHLKKGAELTLIDVYDGCTRGLSGFSLTIRAMHFDFVLLVAFLFHL” it was 50400. As to “KQPKKKAAAKKAQAPKKGKKRAADDDEEEEGEEDVKPKARGKGKGKAATGKGR”, the “transcriptional activation domain activity” value was determined as 42300. Turning to “REEAERKAREEEAERKAARGRGEESEGRARKAGARRARGTPRGGKAGTRRGGE”, the “transcriptional activation domain activity” value was found to be 43000. As to “SDSQKSGKIWGLCCTDSFGCLDLIIGLDLSDVLLVIQWRSTCDMCTLWQRLGH”, the “transcriptional activation domain activity” value was found to be 53500. “LHQRVHEQGLYDCHYSNYFIDLLRYLVLLGLFVVSFYKEYYLVSSCFLGCFWH”: the “transcriptional activation domain activity” value came to 57400. In the case of “RRRRAKSRDPERVRERSERRASRSPEKKDKSARSKSRLGRLAAGAAAAGAAAI”, the “transcriptional activation domain activity” value was found to be 42800. “MGNMGTCSFFFFFCWSSFFLCYFCVFPCVLSFQVEGLEAIFLPFTFFPFWFSL”: the “transcriptional activation domain activity” value stood at 57300. Turning to “PLNMLHLGTWYLDGFQPFEHLRANKELWNLLVRGQTEILSLPRFGWTGWLLSF”, the “transcriptional activation domain activity” value was determined as 46900. Regarding “MILLQCIPPFFLFSFLYSFVFPSPLPTIYDLSFSVSFFLFLFPWLVEIQLCCC”, the “transcriptional activation domain activity” value amounted to 52800. Turning to “DTCTKVHGRVFSREVHHIRFNRITTSTIVALRVASEVGAIWMLPMIYYTIVCW”, the “transcriptional activation domain activity” value amounted to 24200. With “YKKLQWHYFLFDLCYYVNILNFVFLWIFPHSPSLFVACYCLSLGSVASAIITW”, the “transcriptional activation domain activity” value was 27700. Take “DLYNHSYRLHRRKRPGMKEVYLSAMGFRMMGVKGFREWSFLWRVRLAAAPWWA”: the “transcriptional activation domain activity” value came to 52600.

Regarding “IHILASIPSEFWKLLILSFFEKFRSNIYHTLFYRFIYLNRGFILLLLNQLRLI”, the “transcriptional activation domain activity” value turned out to be 48100. Consider “REYHGDTAEIKYGHKVVEIGEDKERGKARVRVEKDGEGGVKEEEVHEADYVVG”, for which the “transcriptional activation domain activity” value came to 22600. Regarding “SFLEGAQHVVLGPGNFQWRGTKCKSFDAFIFNFIRVPRLEYWKLIRRSNCYRY”, the “transcriptional activation domain activity” value was 52500.

Consider “TSAFGGGNTGGGLFGQQNKPTTGFGSSPAPAGGLFGGGSGTTTSTPAFGAAAA”, for which the “transcriptional activation domain activity” value is 37300.

With “WGRKGRGKSPLYDFDVNEFDPQVLFSTGTRTVEFMDDQNQPSSASAFLSTARP”, the “transcriptional activation domain activity” value was found to be 49300. Consider “FAEQGWQVVYYSWQWSLGVYIHYYLPSSVWAGYPHISLPVVIKVYYLMQISLY”, for which the “transcriptional activation domain activity” value was 37900. In the case of “MAMVRCMDLYNLDGNGMGKFYTWQFFPFFRFWFLPVCMLLLPFVLVSCLAFFI”, the “transcriptional activation domain activity” value is 58400.

With “GPIFILLNYIFLAMLWLKNYRPHHLHILIRTRPYVYVTSNLPRLRFLFRHFLF”, the “transcriptional activation domain activity” value was 48300. Take “IVLYLRCFWLSVMFYTYSLFFIKMTFLLNYYRLLLVSKMRSVCIAAIVIIVLW”: the “transcriptional activation domain activity” value was found to be 72100. As to “MVFGVFFVYVYLSSWVFVLWFFSLSLSHGLAYLSFFPFSFLSFFPSLSLFPPC”, the “transcriptional activation domain activity” value turned out to be 62900. Take “AFVLFLVYLTLFCWVCFATSSSWVYSEILNEGQYTESFMPVNYVLLAVLSGII”: the “transcriptional activation domain activity” value came out at 64600. For the sequence “MAIQAFFVICIIKILLYFLFFFFLFLSLLLYTYMYIHICAYVFYKIEKHVKSM”, the “transcriptional activation domain activity” value stood at 51000. Regarding “CIVLEKYIGRLLGLPCDMVFSVFTAASTLLYDSQTKEPNPDTSRRLKLCIHWL”, the “transcriptional activation domain activity” value came to 68500. Turning to “ALGLPARPVSHHILIAIPSGLPLRTHELFMQLLFEHLHLSAVMLVDRSIAQTY”, the “transcriptional activation domain activity” value turned out to be 55300.

As for “ILDLTVRFWGNVKLLRRLWNGIYHFASYHMSSMTRAKVTIVSDLLLGTYILKR”, the “transcriptional activation domain activity” value turned out to be 70700. For “IDFHQHESLIGTEDAFFWFLVPLIGVVCIGVCTVLHYVVLIFTHSFRLLYSLV”, the “transcriptional activation domain activity” value was found to be 26700. Regarding “PAPKRRGRPSKERVEEQQASDDETAQSSPKRRGRLPRQAASASASASAPVAAK”, the “transcriptional activation domain activity” value was found to be 44100.

As to “AKAEAKTTKTAKKPTLEKKATTSKATTAKKPAAKPATKAKETKAAKEPKAKAA”, the “transcriptional activation domain activity” value is 40800. As to “SSEESSSEDDDGDVKMADAKPAANGIYIYLSSINRLINPLQFQVSVKPTRMSL”, the “transcriptional activation domain activity” value stood at 47200. Regarding “GEVSEAEANGATTQAEDGATPAEGADKKKKKKKARKSKKAADAAAGGAEKPAE”, the “transcriptional activation domain activity” value came to 17900. Turning to “HLRNDTRLIPGIKYLQMVLGRVRYCREIIAILARNGHRLPKGMLSTLVRLWLL”, the “transcriptional activation domain activity” value stood at 34800. In the case of “MLIFVLIVCISLGLAMSFDSLSLHLQLHRLFCIFCVIFILFAHSFSVGLSCYI”, the “transcriptional activation domain activity” value was 72000. With “MGCLHFSLFVAFWVFIAFPPSVSYHLALYLLLLLLFILFLLMCGLLRAFGLPV”, the “transcriptional activation domain activity” value amounted to 36700. Turning to “ADSARGGDADAKYRDRDRQRQTETETDRQTKTERDTQRQRQRHRHTHTHSPVQ”, the “transcriptional activation domain activity” value turned out to be 37200.
